Here are results for three molecules from patent US20100196375A1.

Substitutions are numbered along the chain they refer to.

In the test the target is BHV-1 virus (Cooper strain). Description: cell-based or functional assay.

B1: recombinant scFv1-7L (scFv)
scFv: QAVLTQPSSVSGSLGQRVSITCSGSSSNIGRYGVGWYQQVPGSGLRRIIYGSVSRPSGVPVRFSGSKSGDTATLTISSLQAEDEADYFCATADYTSSPVLFGSGTTLTVLGQSSRSSQVQLRESGPSLVKPSQTLSLTCTVSGFSLSGNSVGWVRQTPGKALEWLGNMDGIGTTDYNPALKSRLSITKDNSKSQVSLSLSSVTTEDTATYYCAKCTGAYCWRFDDAYGYDDWGQGLLVTVSS
With B1, the 50% viral neutralization end point was found to be 3 µg/mL; the Percent plaque reduction at 24 µg/ml, Experiment I came to 86.3%; the Percent plaque reduction at 24 µg/ml, Experiment II was 84.8%; the Percent plaque reduction at 72 µg/ml, Experiment I was found to be 95.9%. The molecule further displayed a Percent plaque reduction at 72 µg/ml, Experiment II of 94.2%; a Percent plaque reduction at 216 µg/ml, Experiment I of 100%; a Percent plaque reduction at 216 µg/ml, Experiment II of 100%.

B2: recombinant scFv3-18L (scFv)
scFv: QAVLTQPSSVSGSLGQRVSITCSGSSSNIGRYGVGWYQQVPGSGLRRIIYGSVSRPSGVPVRFSGSKSGDTATLTISSLQAEDEADYFCATADYTSSPVLFGSGTTLTVLGQSSRSSSGGGSSGGGGSQVQLRESGPSLVKPSQTLSLTCTVSGFSLSGNSVGWVRQTPGKALEWLGNMDGIGTTDYNPALKSRLSITKDNSKSQVSLSLSSVTTEDTATYYCAKCTGAYCWRFDDAYGYDDWGQGLLVTVSS
Turning to B2, the 50% viral neutralization end point worked out at 5.5 µg/mL; the Percent Plaque reduction at 11 µg/ml, Experiment I amounted to 78.7%; the Percent Plaque reduction at 11 µg/ml, Experiment II stood at 80%; the Percent Plaque reduction at 33 µg/ml, Experiment I amounted to 89.3%. The same molecule came in with a Percent Plaque reduction at 33 µg/ml, Experiment II of 90.5%; a Percent Plaque reduction at 99 µg/ml, Experiment I of 93.4%; a Percent Plaque reduction at 99 µg/ml, Experiment II of 94.7%.

B3: recombinant scFv4m-18L (scFv)
scFv: B2 scFv with S118G, D217G
B3 yielded a 50% viral neutralization end point of 15 µg/mL; a Percent Plaque reduction at 15 µg/ml, Experiment I of 55.8%; a Percent Plaque reduction at 15 µg/ml, Experiment II of 48.5%; a Percent Plaque reduction at 45 µg/ml, Experiment I of 67%. Also, the Percent Plaque reduction at 45 µg/ml, Experiment II was found to be 70%; the Percent Plaque reduction at 135 µg/ml, Experiment I came out at 92.4%; the Percent Plaque reduction at 135 µg/ml, Experiment II came to 92.6%; the fold higher protein concentration required for virus neutralization, compared with wild type scFv with either 7 or 18 amino acid linker was in the range of 2.7 to 5 fold.
